The source of these data is patent US20260035458A1 (Astellas, published 2026).

T1: human CLDN9 (human, UniProt O95484 1-217)
T1 construct: whole, on cells; Transiently expressed on HEK293 cells
T1 sequence (looked up): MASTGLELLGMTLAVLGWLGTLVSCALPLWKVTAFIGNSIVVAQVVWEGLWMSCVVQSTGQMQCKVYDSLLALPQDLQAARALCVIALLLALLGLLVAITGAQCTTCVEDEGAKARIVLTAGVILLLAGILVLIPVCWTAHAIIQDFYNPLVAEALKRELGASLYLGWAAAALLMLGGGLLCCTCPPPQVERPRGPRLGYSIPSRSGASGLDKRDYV

B1: XENP29476 (bispecific antibody)
heavy: EVQLVQSGAEVKKPGESLRISCKASGYTFTSYWINWVRQMPGKGLEWMGNIYPSDSYTNYNQKFQGHVTISVDKSISTAYLQWSSLKASDTAMYYCTRSWRGNSFDYWGQGTLVTVSSASTKGPSVFPLAPSSKSTSGGTAALGCLVKDYFPEPVTVSWNSGALTSGVHTFPAVLQSSGLYSLSSVVTVPSSSLGTQTYICNVNHKPSDTKVDKKVEPKSCDKTHTCPPCPAPPVAGPSVFLFPPKPKDTLMISRTPEVTCVVVDVKHEDPEVKFNWYVDGVEVHNAKTKPREEEYNSTYRVVSVLTVLHQDWLNGKEYKCKVSNKALPAPIEKTISKAKGQPREPQVYTLPPSREEMTKNQVSLTCDVSGFYPSDIAVEWESDGQPENNYKTTPPVLDSDGSFFLYSKLTVDKSRWEQGDVFSCSVMHEALHNHYTQKSLSLSPGK
chain: EVQLVQSGAEVKKPGESLRISCKASGYTFTSYWINWVRQMPGKGLEWMGNIYPSDSYTNYNQKFQGHVTISVDKSISTAYLQWSSLKASDTAMYYCTRSWRGNSFDYWGQGTLVTVSSASTKGPSVFPLAPSSKSTSGGTAALGCLVKDYFPEPVTVSWNSGALTSGVHTFPAVLQSSGLYSLSSVVTVPSSSLGTQTYICNVNHKPSNTKVDKKVEPKSCGGGGSGGGGSEVQLVESGGGLVQPGGSLRLSCAASGFTFSTYAMNWVRQAPGKGLEWVGRIRSKYNNYATYYADSVKGRFTISRDDSKNTLYLQMNSLRAEDTAVYYCVRHGNFGDSYVSWFAYWGQGTLVTVSSGKPGSGKPGSGKPGSGKPGSQAVVTQEPSLTVSPGGTVTLTCGSSTGAVTTSNYANWVQQKPGKSPRGLIGGTNKRAPGVPARFSGSLLGGKAALTISGAQPEDEADYYCALWYSNHWVFGGGTKLTVLGGGGSGGGGSKTHTCPPCPAPPVAGPSVFLFPPKPKDTLMISRTPEVTCVVVDVKHEDPEVKFNWYVDGVEVHNAKTKPREEQYNSTYRVVSVLTVLHQDWLNGKEYKCKVSNKALPAPIEKTISKAKGQPREPQVYTLPPSREQMTKNQVKLTCLVKGFYPSDIAVEWESNGQPENNYKTTPPVLDSDGSFFLYSKLTVDKSRWQQGNVFSCSVMHEALHNHYTQKSLSLSPGK
light: not shown
notes: also called anti-CLDN18.2× anti-CD3 bsAb; Fab2-scFv
B2: XENP29472 (bispecific antibody)
heavy: B1 heavy
chain: not shown
light: not shown
notes: also called anti-CLDN18.2× anti-CD3 bsAb; Fab-scFv
B3: XENP24647 (bispecific antibody)
heavy: QVQLQQPGAELVRPGASVKLSCKASGYTFTSYWINWVKQRPGQGLEWIGNIYPSDSYTNYNQKFKDKATLTVDKSSSTAYMQLSSPTSEDSAVYYCTRSWRGNSFDYWGQGTTLTVSSASTKGPSVFPLAPSSKSTSGGTAALGCLVKDYFPEPVTVSWNSGALTSGVHTFPAVLQSSGLYSLSSVVTVPSSSLGTQTYICNVNHKPSDTKVDKKVEPKSCDKTHTCPPCPAPPVAGPSVFLFPPKPKDTLMISRTPEVTCVVVDVKHEDPEVKFNWYVDGVEVHNAKTKPREEEYNSTYRVVSVLTVLHQDWLNGKEYKCKVSNKALPAPIEKTISKAKGQPREPQVYTLPPSREEMTKNQVSLTCDVSGFYPSDIAVEWESDGQPENNYKTTPPVLDSDGSFFLYSKLTVDKSRWEQGDVFSCSVMHEALHNHYTQKSLSLSPGK
chain: QVQLQQPGAELVRPGASVKLSCKASGYTFTSYWINWVKQRPGQGLEWIGNIYPSDSYTNYNQKFKDKATLTVDKSSSTAYMQLSSPTSEDSAVYYCTRSWRGNSFDYWGQGTTLTVSSASTKGPSVFPLAPSSKSTSGGTAALGCLVKDYFPEPVTVSWNSGALTSGVHTFPAVLQSSGLYSLSSVVTVPSSSLGTQTYICNVNHKPSNTKVDKKVEPKSCGGGGSGGGGSEVQLVESGGGLVQPGGSLRLSCAASGFTFSTYAMNWVRQAPGKGLEWVGRIRSKYNNYATYYADSVKGRFTISRDDSKNTLYLQMNSLRAEDTAVYYCVRHGNFGDSYVSWFAYWGQGTLVTVSSGKPGSGKPGSGKPGSGKPGSQAVVTQEPSLTVSPGGTVTLTCGSSTGAVTTSNYANWVQQKPGKSPRGLIGGTNKRAPGVPARFSGSLLGGKAALTISGAQPEDEADYYCALWYSNHWVFGGGTKLTVLGGGGSGGGGSKTHTCPPCPAPPVAGPSVFLFPPKPKDTLMISRTPEVTCVVVDVKHEDPEVKFNWYVDGVEVHNAKTKPREEQYNSTYRVVSVLTVLHQDWLNGKEYKCKVSNKALPAPIEKTISKAKGQPREPQVYTLPPSREQMTKNQVKLTCLVKGFYPSDIAVEWESNGQPENNYKTTPPVLDSDGSFFLYSKLTVDKSRWQQGNVFSCSVMHEALHNHYTQKSLSLSPGK
light: DIVMTQSPSSLTVTAGEKVTMSCKSSQSLLNSGNQKNYLTWYQQKPGQPPKLLIYWASTRESGVPDRFTGSGSGTDFTLTISSVQAEDLAVYYCQNDYSYPFTFGSGTKLEIKRTVAAPSVFIFPPSDEQLKSGTASVVCLLNNFYPREAKVQWKVDNALQSGNSQESVTEQDSKDSTYSLSSTLTLSKADYEKHKVYACEVTHQGLSSPVTKSFNRGEC
notes: as for B1
B4: XENP24645 (bispecific antibody)
heavy: B3 heavy
chain: not shown
light: B3 light
notes: expressed in HEK293E cells; also called anti-CLDN18.2× anti-CD3 bsAb; Fab-scFv
B5: XENP24644 (antibody, V domains shown)
VH: QVQLQQPGAELVRPGASVKLSCKASGYTFTSYWINWVKQRPGQGLEWIGNIYPSDSYTNYNQKFKDKATLTVDKSSSTAYMQLSSPTSEDSAVYYCTRSWRGNSFDYWGQGTTLTVSS
VL: DIVMTQSPSSLTVTAGEKVTMSCKSSQSLLNSGNQKNYLTWYQQKPGQPPKLLIYWASTRESGVPDRFTGSGSGTDFTLTISSVQAEDLAVYYCQNDYSYPFTFGSGTKLEIK
notes: also called H0L0 CLDN18.2; bivalent mAb
B6: XENP29470 (antibody, V domains shown)
VH: EVQLVQSGAEVKKPGESLRISCKASGYTFTSYWINWVRQMPGKGLEWMGNIYPSDSYTNYNQKFQGHVTISVDKSISTAYLQWSSLKASDTAMYYCTRSWRGNSFDYWGQGTLVTVSS
VL: B5 VL with S9D, T12A, T14S, A15L, K18R, V19A, M21I, S22N, V84L, L89V
notes: also called H1L1 CLDN18.2 (printed H1LI); bivalent mAb
B7: XENP29471 (antibody, V domains shown)
VH: QVQLVQSGAEVKKPGASVKVSCKASGYTFTSYWINWVRQAPGQGLEWMGNIYPSDSYTNYNQKFQGRVTMTVDKSTSTAYMELSSLRSEDTAVYYCTRSWRGNSFDYWGQGTLVTVSS
VL: B5 VL with S9D, T12A, T14S, A15L, K18R, V19A, M21I, S22N, V84L, L89V
notes: also called H2L1 CLDN18.2; bivalent mAb

Substitutions are numbered along the chain they refer to.

One experiment concerns the target T1, human CLDN9. The experiment in a line: flow cytometry on HEK293 cells transiently transfected with human CLDN9, AF647 secondary antibody.
As to B1, the binding result was “no binding (tested: 30000 ng/ml)”.
Turning to B2, the binding result is listed as “no binding (tested: 30000 ng/ml)”.
Consider B3, for which the binding result is on record as “no binding (tested: 30000 ng/ml)”.
On the same count and under the same terms, as for B4, the entry is “no binding (tested: 30000 ng/ml)”; as for B5, “no binding (tested: 30000 ng/ml)”.

A further experiment deals with T2, human CLDN18.2 (human).
T2 construct: also called claudin 18 splice variant 2
Kind of experiment: flow cytometry on SNU-601 (2E4) cells (enriched for CLDN18.2), Alexa Fluor 647 anti-human IgG Fcγ secondary.
Text: Control samples included bsAbs having murine CLDN18.2 ABDs, bivalent anti-CLDN18.2 mAbs, cells only, and secondary antibody only.
Regarding B1, the “EC50 (read off the curve)” value was around 0.5 mg/L.
Same read-out and setting: then B3, with around 0.6 mg/L.
Regarding B5, the “EC50 (read off the curve)” value is around 0.4 mg/L.
On the same count and under the same terms, then B6, with around 0.5 mg/L; and B7, with around 0.9 mg/L.

The next experiment concerns the target T2, human CLDN18.2. Kind of experiment: flow cytometry on HEK293 cells transiently transfected with human CLDN18.2 (column hCLDN18.2 EC50 (nM)).
Experimental: Therefore, the anti-CLDN18.2× anti-CD3 bsAbs were investigated for their binding to human CLDN18.2, cynomolgus CLDN18.2, and murine CLDN18.2. HEK293 cells were transiently transfected to express human, cynomolgus, or mouse CLDN18.2. 48 hours post transfection, cells were mixed with indicated concentrations of the bsAbs and incubated for 1 hour at 4° C. Cells were washed and then stained with a secondary Ab for 1 hour at 4° C. After two more washes, cells were analyzed on an Attune flow cytometer.
For the molecule B1, a half-maximal effect (EC50) was put at 6 nM.
Same read-out and setting: then B2, with 146 nM; and B3, with 4 nM.
The same measure, in the same setting: as for B4, the figure is 145 nM.
For the molecule B5, the midpoint of the response, the EC50, lay at 4 nM.
